In paper PMC2172930 one finds increase of AR/p85 association on 0.001 nM R1881 against unstimulated cells data, which are given here for one substance.

In this assay the target is p85, the regulatory subunit of PI3-kinase (mouse (endogenous in NIH3T3)) (UniProt P26450). Description: co-IP.
UniProt P26450, sequence (P26450 whole entry): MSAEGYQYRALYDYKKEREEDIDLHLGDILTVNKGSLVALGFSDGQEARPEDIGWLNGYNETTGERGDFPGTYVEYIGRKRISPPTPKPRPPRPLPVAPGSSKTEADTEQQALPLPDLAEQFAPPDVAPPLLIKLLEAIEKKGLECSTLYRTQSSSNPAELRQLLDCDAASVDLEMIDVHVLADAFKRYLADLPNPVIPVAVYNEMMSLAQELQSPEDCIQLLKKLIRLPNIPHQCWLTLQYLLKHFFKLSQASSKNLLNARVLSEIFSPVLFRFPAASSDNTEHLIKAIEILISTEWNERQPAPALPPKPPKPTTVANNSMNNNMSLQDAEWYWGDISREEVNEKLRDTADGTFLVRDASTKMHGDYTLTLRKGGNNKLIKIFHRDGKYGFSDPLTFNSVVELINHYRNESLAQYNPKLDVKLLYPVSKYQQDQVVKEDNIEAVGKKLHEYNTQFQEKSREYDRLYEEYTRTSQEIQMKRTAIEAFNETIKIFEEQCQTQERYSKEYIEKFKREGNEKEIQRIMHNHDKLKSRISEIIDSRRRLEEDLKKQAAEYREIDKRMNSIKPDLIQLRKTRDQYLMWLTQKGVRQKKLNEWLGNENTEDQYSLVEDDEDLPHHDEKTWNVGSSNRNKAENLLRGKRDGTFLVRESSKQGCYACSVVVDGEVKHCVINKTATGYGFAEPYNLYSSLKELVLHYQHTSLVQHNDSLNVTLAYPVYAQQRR

Take “androgen receptor (110-kD classical murine AR of NIH3T3 cells) (from UniProt P19091 1-899)”: the increase of AR/p85 association on 0.001 nM R1881 against unstimulated cells was determined as 38%.
